# In publication PMC7016869:
# “And” between values parts separate entries of the source, which are not always exact repeats. Equal values may be shown once.
# Assays:
# [1] = molecular target: Exchange protein directly activated by cAMP 1 (EPAC1), recombinant full-length wild-type EPAC1B (human); experiment: MST; EPAC1-cAMP and Rap1; no further conditions told
# [2] = molecular target: Exchange protein directly activated by cAMP 1 (EPAC1), recombinant full-length wild-type EPAC1B (human); experiment: SAXS; EPAC1 with 1 mM cAMP, no Rap1b, 2.7 mg/mL, 10 mM Tris pH 9, 1 mM EDTA, 10 mM DTT, 500 mM NaCl; monomer to dimer
# Chain of C-terminally truncated Rap1b (1-167) (P61224 1-167): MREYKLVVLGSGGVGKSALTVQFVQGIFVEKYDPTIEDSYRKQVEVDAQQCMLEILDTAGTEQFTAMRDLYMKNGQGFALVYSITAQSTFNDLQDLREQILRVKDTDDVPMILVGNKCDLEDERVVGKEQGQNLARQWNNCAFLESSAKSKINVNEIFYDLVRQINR
Substance,Kd [1],percent monomer in solution (EOM/polydispersity analysis) [2],stoichiometry N [2]
C-terminally truncated Rap1b (1-167) (from UniProt P61224 1-167) (domain or fragment),20 to 60 nM,–,–
"Exchange protein directly activated by cAMP 1 (EPAC1), recombinant full-length wild-type EPAC1B (natural protein)",–,5 to 15%,1.8 and 2.4 and 2.2
